The values below come from patent US20020151473A1.

This test concerns the target IgG. Put plainly: microcalorimetry and surface plasmon resonance (same value stated for both). Background: Surface plasmon resonance follows binding to a sensor surface in real time, without labels.

The Kd is the constant that tells how readily two partners part at equilibrium.

For the substance “cyclized (locked helix) peptide FNM(5)QQRRFY(6)ALH”, the Kd came out at 100 µM.
